Laboratory results: PMC10786891, “Massively parallel profiling of RNA-targeting CRISPR-Cas13d”
Residue numbers refer to the chain shown, from its start. Numbers in names are those of the source.

B1: target 1 insG 3' of 19,insA 3' of 13 (mixed)
RNA 1: CACCCGUGCAAAAAUGCAGGGGUCUAAAACUGAGCGGAUAACCUCUCUAUGG
RNA 2: GGGAAUGGAUCCACAUCUACGAAUUCGUACCAUGAGAGAGAGUUAUCCGCUCACCGAGAUCGGAAGAGCACACGU
B2: target 1 insU 3' of 17,insA 3' of 4 (mixed)
RNA 1: B1 RNA 1
RNA 2: GGGAAUGGAUCCACAUCUACGAAUUCGUACCAUAGUAGAGGUUAUCCGCAUCACCGAGAUCGGAAGAGCACACGU
B3: target 1 A9G,G12U (mixed)
RNA 1: B1 RNA 1
RNA 2: GGGAAUGGAUCCACAUCUACGAAUUCGUACCAUAGAGAGUUUGUCCGCUCACCGAGAUCGGAAGAGCACACGU
B4: target 1 G12A,U19C (mixed)
RNA 1: B1 RNA 1
RNA 2: B3 RNA 2 with U33C, U40A, G43A
B5: target 1 insC 3' of 9,insG 3' of 4 (mixed)
RNA 1: B1 RNA 1
RNA 2: B2 RNA 2 with U36A, A37G, G38A, A39G, G41U, U43A, A44C, A50G
B6: target 1 C2G,U8C (mixed)
RNA 1: B1 RNA 1
RNA 2: B3 RNA 2 with U40G, G43A, U44C, C50G
B7: target 1 insU 3' of 18,insG 3' of 3 (mixed)
RNA 1: B1 RNA 1
RNA 2: B2 RNA 2 with G35U, U36G, A50U, U51G
B8: target 1 complement block 1-5 (mixed)
RNA 1: B1 RNA 1
RNA 2: B3 RNA 2 with U40G, G43A, G47C, C48G, U49A, C50G, A51U
B9: target 1 insG 3' of 20,insG 3' of 20 (mixed)
RNA 1: B1 RNA 1
RNA 2: B1 RNA 2 with U33G, A35U, G36A, A37G, G38A, A39G, G40A, A41G
B10: target 1 G15U,A16U (mixed)
RNA 1: B1 RNA 1
RNA 2: B3 RNA 2 with A36U, G37U, U40G, G43A
B11: target 1 C6G,G13U (mixed)
RNA 1: B1 RNA 1
RNA 2: B3 RNA 2 with G39U, U40G, G43A, C46G
B12: target 1 A9G,C22G (mixed)
RNA 1: B1 RNA 1
RNA 2: B3 RNA 2 with C30G, U40G
B13: target 1 insU 3' of 15 (mixed)
RNA 1: B1 RNA 1
RNA 2: GGGAAUGGAUCCACAUCUACGAAUUCGUACCAUAGAGUAGGUUAUCCGCUCACCGAGAUCGGAAGAGCACACGU
B14: target 1 C7A,C22U (mixed)
RNA 1: B1 RNA 1
RNA 2: B3 RNA 2 with C30U, U40G, G43A, C45A
B15: target 1 insU 3' of 21,insG 3' of 2 (mixed)
RNA 1: B1 RNA 1
RNA 2: B2 RNA 2 with A32U, U33A, A34U, G35A, U36G, A50U, U51C, C52G
B16: target 3 complement block 3-7 (mixed)
RNA 1: CACCCGUGCAAAAUUGCAGGGGUCUAAAACGACCUGAAUAUUUCAGAUCAAA
RNA 2: GGGAAUGGAUCCACAUCUACGAAUUCGUUUUUGAUCUGAAAUAUAGUCCUCUGCAGAUCGGAAGAGCACACGU
B17: target 3 insU 3' of 16,insA 3' of 4 (mixed)
RNA 1: B16 RNA 1
RNA 2: GGGAAUGGAUCCACAUCUACGAAUUCGUUUUUGAUCUUGAAAUAUUCAGAGUCUGCAGAUCGGAAGAGCACACGU
B18: target 3 insA 3' of 6,insU 3' of 6 (mixed)
RNA 1: B16 RNA 1
RNA 2: GGGAAUGGAUCCACAUCUACGAAUUCGUUUUUGAUCUGAAAUAUUCAUAGGUCUGCAGAUCGGAAGAGCACACGU
B19: target 3 del14,del17 (mixed)
RNA 1: B16 RNA 1
RNA 2: GGGAAUGGAUCCACAUCUACGAAUUCGUUUUUGACUAAAUAUUCAGGUCUGCAGAUCGGAAGAGCACACGU
B20: target 3 A5G,U7C (mixed)
RNA 1: B16 RNA 1
RNA 2: B16 RNA 2 with A45C, G46C, U47G, C48G, C49G
B21: target 3 insA 3' of 8,insA 3' of 7 (mixed)
RNA 1: B16 RNA 1
RNA 2: B18 RNA 2 with U45A, C46U, U48C
B22: target 3 insA 3' of 22,insC 3' of 4 (mixed)
RNA 1: B16 RNA 1
RNA 2: B17 RNA 2 with U31A, G33U, A34G, U35A, C36U, U37C, A50C
B23: target 3 C6U,U7C (mixed)
RNA 1: B16 RNA 1
RNA 2: B16 RNA 2 with A45C, G46U, U47A, C48G, C49G
B24: target 3 C6U,U22G (mixed)
RNA 1: B16 RNA 1
RNA 2: B16 RNA 2 with U30G, A45U, G46U, U47A, C48G, C49G
B25: target 3 G3U,U8G (mixed)
RNA 1: B16 RNA 1
RNA 2: B16 RNA 2 with U44G, A45U, G46C, U47A, C48G, C49U
B26: target 3 C1G,U2G (mixed)
RNA 1: B16 RNA 1
RNA 2: B16 RNA 2 with A45U, G46C, U47A, C48G, C49G, U50G, C51G
B27: target 3 G3C,U21G (mixed)
RNA 1: B16 RNA 1
RNA 2: B16 RNA 2 with U31G, A45U, G46C, U47A, C48G
B28: target 3 C1A,G4U (mixed)
RNA 1: B16 RNA 1
RNA 2: B16 RNA 2 with A45U, G46C, U47A, C48U, C49G, C51A

Target: T1, EsCas13d, nuclease-dead (Eubacterium siraeum, UniProt B0MS50, R295A;H300A;R849A;H854A)
T1 sequence: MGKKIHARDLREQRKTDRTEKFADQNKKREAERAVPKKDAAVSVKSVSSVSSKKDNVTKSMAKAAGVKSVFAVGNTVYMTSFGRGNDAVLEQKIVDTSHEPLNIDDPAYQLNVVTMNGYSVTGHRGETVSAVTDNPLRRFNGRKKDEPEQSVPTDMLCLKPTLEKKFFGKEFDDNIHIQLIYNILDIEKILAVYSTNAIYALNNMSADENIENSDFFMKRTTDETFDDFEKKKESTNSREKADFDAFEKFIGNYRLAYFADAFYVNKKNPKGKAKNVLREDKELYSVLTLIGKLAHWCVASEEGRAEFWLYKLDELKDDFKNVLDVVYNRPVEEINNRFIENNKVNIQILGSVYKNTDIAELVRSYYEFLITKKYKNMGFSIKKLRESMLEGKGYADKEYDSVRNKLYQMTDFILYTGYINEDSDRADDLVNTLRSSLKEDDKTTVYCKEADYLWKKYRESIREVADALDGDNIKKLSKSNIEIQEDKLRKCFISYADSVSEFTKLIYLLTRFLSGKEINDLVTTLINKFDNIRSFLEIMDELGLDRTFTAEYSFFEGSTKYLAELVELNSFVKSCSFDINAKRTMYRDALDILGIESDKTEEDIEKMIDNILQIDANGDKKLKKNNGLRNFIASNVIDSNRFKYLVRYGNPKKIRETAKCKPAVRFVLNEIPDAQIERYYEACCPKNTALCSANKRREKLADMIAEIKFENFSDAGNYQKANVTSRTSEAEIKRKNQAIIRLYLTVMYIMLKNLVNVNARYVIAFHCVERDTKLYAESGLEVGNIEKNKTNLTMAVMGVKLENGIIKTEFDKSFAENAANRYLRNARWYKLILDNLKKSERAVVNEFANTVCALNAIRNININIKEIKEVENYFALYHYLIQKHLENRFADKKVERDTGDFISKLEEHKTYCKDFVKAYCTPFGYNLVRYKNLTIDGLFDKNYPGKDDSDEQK
Assay: crRNA (strand 1, pre-loaded); Mg2+; 40 mM Tris-HCl pH 7.5, 150 mM NaCl, 6 mM MgCl2, 1 mM DTT, 0.1% Tween-20, 0.2 mg/ml BSA; 25 C; 10 min per concentration, then washed
Settings: tags: His6-TwinStrep-SUMO cleaved; N-terminal SNAP kept (SNAP-Surface 488); label: 3' end held by stalled T7 RNA polymerase

Binder | Kd [nM]
B1 | 47 ± 10
B2 | 15.3 ± 1.4
B3 | 12.5 ± 0.6
B4 | 22 ± 3
B5 | 7.02 ± 0.26
B6 | 7.9 ± 0.4
B7 | 17.7 ± 0.6
B8 | 14.3 ± 0.6
B9 | 60 ± 20
B10 | 15.6 ± 0.7
B11 | 37 ± 5
B12 | 58 ± 18
B13 | 8.7 ± 0.6
B14 | 13.8 ± 1.1
B15 | 26 ± 5
B16 | 74 ± 11
B17 | 90 ± 44.5
B18 | 5.3 ± 0.39
B19 | 41 ± 7
B20 | 66.5 ± 11
B21 | 44.5 ± 5.5
B22 | 19.4 ± 4.55
B23 | 65.5 ± 15.5
B24 | 51.5 ± 6
B25 | 68 ± 10
B26 | 12.8 ± 1.6
B27 | 70.5 ± 24
B28 | 17.4 ± 4.35
